± gives the standard deviation of the averaged measurements.
Test: total protein half-life in vivo (active degradation + dilution); higher = more stable protein
[1] = E. coli NCM3722 delta-clpP delta-lon delta-hslV, growth: N-lim chemostat, doubling time 6 h
[2] = E. coli NCM3722 delta-clpP, growth: N-lim chemostat, doubling time 6 h
[3] = E. coli NCM3722 delta-hslV, growth: N-lim chemostat, doubling time 6 h
[4] = E. coli NCM3722 delta-lon, growth: N-lim chemostat, doubling time 6 h
[5] = E. coli NCM3722 delta-smpB, growth: N-lim chemostat, doubling time 6 h
[6] = wild type E. coli NCM3722, growth: C-lim chemostat, doubling time 3 h
[7] = wild type E. coli NCM3722, growth: C-lim chemostat, doubling time 6 h
[8] = wild type E. coli NCM3722, growth: C-lim chemostat, doubling time 12 h
[9] = wild type E. coli NCM3722, growth: N-lim chemostat, doubling time 6 h
[10] = wild type E. coli NCM3722, growth: N-lim chemostat, doubling time 12 h
[11] = wild type E. coli NCM3722, growth: P-lim chemostat, doubling time 6 h
[12] = wild type E. coli NCM3722, growth: P-lim chemostat, doubling time 12 h

Sequence	total protein half-life in vivo [1] [h]	total protein half-life in vivo [2] [h]	total protein half-life in vivo [3] [h]	total protein half-life in vivo [4] [h]	total protein half-life in vivo [5] [h]	total protein half-life in vivo [6] [h]	total protein half-life in vivo [7] [h]	total protein half-life in vivo [8] [h]	total protein half-life in vivo [9] [h]	total protein half-life in vivo [10] [h]	total protein half-life in vivo [11] [h]	total protein half-life in vivo [12] [h]
MSLWKKISLGVVIVILLLLGSVAFLVGTTSGLHLVFKAADRWVPGLDIGKVTGGWRDLTLSDVRYEQPGVAVKAGNLHLAVGLECLWNSSVCINDLALKDIQVNIDSKKMPPSEQVEEEEDSGPLDLSTPYPITLTRVALDNVNIKIDDTTVSVMDFTSGLNWQEKTLTLKPTSLKGLLIALPKVAEVAQEEVVEPKIENPQPDEKPLGETLKDLFSRPVLPEMTDVHLPLNLNIEEFKGEQLRVTGDTDITVSTMLLKVSSIDGNTKLDALDIDSSQGIVNASGTAQLSDNWPVDITLNSTLNVEPLKGEKVKLKMGGALREQLEIGVNLSGPVDMDLRAQTRLAEAGLPLNVEVNSKQLYWPFTGEKQYQADDLKLKLTGKMTDYTLSMRTAVKGQEIPPATITLDAKGNEQQVNLDKLTVAALEGKTELKALLDWQQAISWRGELTLNGINTAKEFPDWPSKLNGLIKTRGSLYGGTWQMDVPELKLTGNVKQNKVNVDGTLKGNSYMQWMIPGLHLELGPNSAEVKGELGVKDLNLDATINAPGLDNALPGLGGTAKGLVKVRGTVEAPQLLADITARGLRWQELSVAQVRVEGDIKSTDQIAGKLDVRVEQISQPDVNINLVTLNAKGSEKQHELQLRIQGEPVSGQLNLAGSFDRKEERWKGTLSNTRFQTPVGPWSLTRDIALDYRNKEQKISIGPHCWLNPNAELCVPQTIDAGAEGRAVVNLNRFDLAMLKPFMPETTQASGIFTGKADVAWDTTKEGLPQGSITLSGRNVQVTQTVNDAALPVAFQTLNLTAELRNNRAELGWTIRLTNNGQFDGQVQVTDPQGRRNLGGNVNIRNFNLAMINPIFTRGEKAAGMVSANLRLGGDVQSPQLFGQLQVTGVDIDGNFMPFDMQPSQLAVNFNGMRSTLAGTVRTQQGEIYLNGDADWSQIENWRARVTAKGSKVRITVPPMVRMDVSPDVVFEATPNLFTLDGRVDVPWARIVVHDLPESAVGVSSDVVMLNDNLQPEEPKTASIPINSNLIVHVGNNVRIDAFGLKARLTGDLNVVQDKQGLGLNGQINIPEGRFHAYGQDLIVRKGELLFSGPPDQPYLNIEAIRNPDATEDDVIAGVRVTGLADEPKAEIFSDPAMSQQAALSYLLRGQGLESDQSDSAAMTSMLIGLGVAQSGQIVGKIGETFGVSNLALDTQGVGDSSQVVVSGYVLPGLQVKYGVGIFDSIATLTLRYRLMPKLYLEAVSGVDQALDLLYQFEF	5.88 ± 0.49	6.03 ± 0.44	6.95 ± 0.39	6.374 ± 0.041	5.69 ± 0.29	3.04 ± 0.044	5.97 ± 0.5	11.7 ± 1.2	6.2514 ± 0.0027	12.1 ± 0.24	5.992 ± 0.026	12.22 ± 0.066
MSMSHINYNHLYYFWHVYKEGSVVGAAEALYLTPQTITGQIRALEERLQGKLFKRKGRGLEPSELGELVYRYADKMFTLSQEMLDIVNYRKESNLLFDVGVADALSKRLVSSVLNAAVVEGEPIHLRCFESTHEMLLEQLSQHKLDMIISDCPIDSTQQEGLFSVRIGECGVSFWCTNPPPEKPFPACLEERRLLIPGRRSMLGRKLLNWFNSQGLNVEILGEFDDAALMKAFGAMHNAIFVAPTLYAYDFYADKTVVEIGRVENVMEEYHAIFAERMIQHPAVQRICNTDYSALFSPAVR [P0A9G2]	6.03 ± 0.4	6.18	4.38	5.99 ± 1.4	5.21 ± 0.34	–	5.51	9.31	5.76 ± 1.2	–	4.93 ± 1.5	10.2
MSNAITMGIFWHLIGAASAACFYAPFKKVKKWSWETMWSVGGIVSWIILPWAISALLLPNFWAYYSSFSLSTRLPVFLFGAMWGIGNINYGLTMRYLGMSMGIGIAIGITLIVGTLMTPIINGNFDVLISTEGGRMTLLGVLVALIGVGIVTRAGQLKERKMGIKAEEFNLKKGLVLAVMCGIFSAGMSFAMNAAKPMHEAAAALGVDPLYVALPSYVVIMGGGAIINLGFCFIRLAKVKDLSLKADFSLAKSLIIHNVLLSTLGGLMWYLQFFFYAWGHARIPAQYDYISWMLHMSFYVLCGGIVGLVLKEWNNAGRRPVTVLSLGCVVIIVAANIVGIGMAN	–	–	–	–	–	–	–	–	–	7.44	–	–
MSNAQEAVKTRHKETSLIFPVLALVVLFLWGSSQTLPVVIAINLLALIGILSSAFSVVRHADVLAHRLGEPYGSLILSLSVVILEVSLISALMATGDAAPTLMRDTLYSIIMIVTGGLVGFSLLLGGRKFATQYMNLFGIKQYLIALFPLAIIVLVFPMALPAANFSTGQALLVALISAAMYGVFLLIQTKTHQSLFVYEHEDDSDDDDPHHGKPSAHSSLWHAIWLIIHLIAVIAVTKMNASSLETLLDSMNAPVAFTGFLVALLILSPEGLGALKAVLNNQVQRAMNLFFGSVLATISLTVPVVTLIAFMTGNELQFALGAPEMVVMVASLVLCHISFSTGRTNVLNGAAHLALFAAYLMTIFA	–	> 8	–	–	6.69	–	–	> 16	–	–	6.87	–
MSNILIINGAKKFAHSNGQLNDTLTEVADGTLRDLGHDVRIVRADSDYDVKAEVQNFLWADVVIWQMPGWWMGAPWTVKKYIDDVFTEGHGTLYASDGRTRKDPSKKYGSGGLVQGKKYMLSLTWNAPMEAFTEKDQFFHGVGVDGVYLPFHKANQFLGMEPLPTFIANDVIKMPDVPRYTEEYRKHLVEIFG [P0AEY5]	–	1.93 ± 0.14	1.94 ± 0.091	2.18 ± 0.044	2.27 ± 0.32	3.31 ± 0.43	4.76 ± 0.2	6.6 ± 0.75	2.12 ± 0.18	–	–	8.32 ± 0.26
MSNITIYHNPACGTSRNTLEMIRNSGTEPTIIHYLETPPTRDELVKLIADMGISVRALLRKNVEPYEELGLAEDKFTDDRLIDFMLQHPILINRPIVVTPLGTRLCRPSEVVLEILPDAQKGAFSKEDGEKVVDEAGKRLK [P0AB96]	6.69 ± 0.8	5.24	–	–	3.72	–	6.14 ± 0.37	8.79 ± 1.4	3.41 ± 1.2	6.1	5.09	9.63 ± 0.02
MSNIWSKEETLWSFALYGTAVGAGTLFLPIQLGSAGAVVLFITALVAWPLTYWPHKALCQFILSSKTSAGEGITGAVTHYYGKKIGNLITTLYFIAFFVVVLIYAVAITNSLTEQLAKHMVIDLRIRMLVSLGVVLILNLIFLMGRHATIRVMGFLVFPLIAYFLFLSIYLVGSWQPDLLTTQVEFNQNTLHQIWISIPVMVFAFSHTPIISTFAIDRREKYGEHAMDKCKKIMKVAYLIICISVLFFVFSCLLSIPPSYIEAAKEEGVTILSALSMLPNAPAWLSISGIIVAVVAMSKSFLGTYFGVIEGATEVVKTTLQQVGVKKSRAFNRALSIMLVSLITFIVCCINPNAISMIYAISGPLIAMILFIMPTLSTYLIPALKPWRSIGNLITLIVGILCVSVMFFS	–	–	–	–	5.13	–	–	–	–	–	–	–
MSNKMTGLVKWFNADKGFGFISPVDGSKDVFVHFSAIQNDNYRTLFEGQKVTFSIESGAKGPAAANVIITD	0.427 ± 0.069	0.486 ± 0.036	0.454	0.617 ± 0.26	–	2.03	–	0.407	0.537	0.434	–	1.16
MSNLAAMLRLPANLKSTQWQILAGPILILLILSMMVLPLPAFILDLLFTFNIALSIMVLLVAMFTQRTLEFAAFPTILLFTTLLRLALNVASTRIILMEGHTGAAAAGKVVEAFGHFLVGGNFAIGIVVFVILVIINFMVITKGAGRIAEVGARFVLDGMPGKQMAIDADLNAGLIGEDEAKKRRSEVTQEADFYGSMDGASKFVRGDAIAGILIMVINIVGGLLVGVLQHGMSMGHAAESYTLLTIGDGLVAQIPALVISTAAGVIVTRVSTDQDVGEQMVNQLFSNPSVMLLSAAVLGLLGLVPGMPNLVFLLFTAGLLGLAWWIRGREQKAPAEPKPVKMAENNTVVEATWNDVQLEDSLGMEVGYRLIPMVDFQQDGELLGRIRSIRKKFAQEMGFLPPVVHIRDNMDLQPARYRILMKGVEIGSGDAYPGRWLAINPGTAAGTLPGEATVDPAFGLNAIWIESALKEQAQIQGYTVVEASTVVATHLNHLISQHAAELFGRQEAQQLLDRVAQEMPKLTEDLVPGVVTLTTLHKVLQNLLDEKVPIRDMRTILETLAEHAPIQSDPHELTAVVRVALGRAITQQWFPGKDEVHVIGLDTPLERLLLQALQGGGGLEPGLADRLLAQTQEALSRQEMLGAPPVLLVNHALRPLLSRFLRRSLPQLVVLSNLELSDNRHIRMTATIGGK	–	–	–	–	–	2.13 ± 0.33	3.87	8.63	–	–	–	14.5
MSNLSPDFVLPENFCANPQEAWTIPARFYTDQNAFEHEKENVFAKSWICVAHSSELANANDYVTREIIGESIVLVRGRDKVLRAFYNVCPHRGHQLLSGEGKAKNVITCPYHAWAFKLDGNLAHARNCENVANFDSDKAQLVPVRLEEYAGFVFINMDPNATSVEDQLPGLGAKVLEACPEVHDLKLAARFTTRTPANWKNIVDNYLECYHCGPAHPGFSDSVQVDRYWHTMHGNWTLQYGFAKPSEQSFKFEEGTDAAFHGFWLWPCTMLNVTPIKGMMTVIYEFPVDSETTLQNYDIYFTNEELTDEQKSLIEWYRDVFRPEDLRLVESVQKGLKSRGYRGQGRIMADSSGSGISEHGIAHFHNLLAQVFKD [P0ABR7]	–	–	–	–	–	0.182	–	–	–	–	–	–
